According to the DeepSol protein solubility set:

Assay: soluble on expression in E. coli; label from the status in PepcDB or PDB records

| Sequence | soluble on expression in E. coli |
| --- | --- |
| MTEFTLAHLSDPHLPLPPKTSLRHLASKRALGYLNWRRNRHLIHRRDILDTLVADLQAQQPDHIAVTGDLVNIALVNEFAPARQWLESVGPADRVSLVPGNHDAYVRSTAHRFAETFPDYISGDDATPGFPYLRRREAIAIIGVSSAVPTAPLRATGWLGAPQRAALEALLQSLAGERVFKVLLIHHPLQSRSRHKRLTDAADLIALLQRHPVDLVLHGHDHVHATVRIDTPFGAIPVVGVPSASAMNDRHRPSAAYNLFKISEGNDGWRCLEHHHHHH | not soluble |
| MLEGAKFNVLAVGNHHNNDNNYYAFTQEFYQKLNEGSNMSMESMQTSNAGGSVSMSVDNSSVGSSDALIGHPGLKPVRHYSLSVGQSVFRPGRVTHALNDDALAQALMDTRYPTEGLTNYDEWTIDLRKLNMGPAFAQGAFGKLYKGTYNGEDVAIKILERPENSPEKAQFMEQQFQQEVSMLANLKHPNIVRFIGACRKPMVWCIVTEYAKGGSVRQFLTRRQNRAVPLKLAVKQALDVARGMAYVHGRNFIHRDLKSDNLLISADKSIKIADFGVARIEVQTEGMTPETGTYRWMAPEMIQHRAYNQKVDVYSFGIVLWELITGLLPFQNMTAVQAAFAVVNRGVRPTVPNDCLPVLSDIMTRCWDANPEVRPCFVEVVKLLEAAETEIMTTARKARFRCCLSQPMTID | not soluble |
| SLKPFQDKNTFFYKSPSYICDSEISVACKKGKKVDFPNQDDFTIIQTNDWILIMVFDGHGPSGHDISNFVHVVLPLLFSYNIEKIYENPVRTMKTLFYMINCYLVNYSYCINNNINPININFIDYNLSGTTCTIILYNFITKKIYSAHTGDSRAVMGKQNPQTNKFSAYNITEDHKPSLKLEKDRILAFGGEVKKLHGDVAYRVFVKDEMYPGLAMSRAIGDITSSFIGVTCEPTIKILDKLEEDKFIIVATDGIWEFISSEECVQMVSKKKKKKVHIAMEEIIKESWRRWARIDTVDDMTLVILYF | not soluble |
| MVQNNDVDGAFGLLNRLMDSEGMLKIIRRTQFYQKPYMQRKTLSMEASTAIFNEDMNRKMKFLVRKNRPDKHPGQVTS | not soluble |
| MQLFDLSLEELKKYKPKKTARPDFSDFWKKSLEELRQVEAEPTLESYDYPVKGVKVYRLTYQSFGHSKIEGFYAVPDQTGPHPALVRFHGYNASYDGGIHDIVNWALHGYATFGMLVRGQGGSEDTSVTPGGHALGWMTKGILSKDTYYYRGVYLDAVRALEVIQSFPEVDEHRIGVIGGAQGGALAIAAAALSDIPKVVVADYPYLSNFERAVDVALEQPYLEINSYFRRNSDPKVEEKAFETLSYFDLINLAGWVKQPTLMAIGLIDKITPPSTVFAAYNHLETDKDLKVYRYFGHEFIPAFQTEKLSFLQKHLLLST | soluble |
| MGSDKIHHHHHHALLWFSRFQRTGKLCVSLGWLLLTLLSLQPVADSLLKPIEDTYPTWRGEQPVNYVVVLGGGYTWNPEWAPSSNLINNSLPRLTEGIRLWQANPGSKMIFTGAAAKTNPVSTAEAGARVAESLGVPRSDIIVLDRPKDTEEEALAVKRAIGDAPFLLVTSASHLPRAMIFFRHAGLDPLPAPANQLAVTSPLNPWERAIPSPVWLMHSDRVGYETLGRVWQWLKGSSGEPGQE | not soluble |
| MSLRLVKTALTIAGSDSGGGAGIEADLKTFTAFGVHGLVAITSVTAQNTQAVTAIHDIPPDVVSEQIRAVAEDIGVDAAKTGMLSNAEIIKAVAKTVKNYDFPLVVDPVMIAKSGAPLLREDAVDALIKYILPLATLVTPNRFEAEKLSGMKIRTVEDAKIAAKKIAEETGAKAVIVKGGHIEGEEAIDVLYHNGSYRLYRAPKVEGCTHGTGCSFSAAITANLAKGFGLEDAIEVAKKFITLGIAMGHRIGHGHCPVNQSAWIEIPAEKWRIYEELTRAVREFEEMNPVKFIPEVGTNFVYSLPLPYARTRDDVAGVKGRIVRVGNEVRAVGPVEFGASDHLARAVLTFMKFYPEYRSAINIRYSEETVRLAEEQGLVVSFYDRREEPEEIKEREGATIPWGIESAIKRVKQRPDVIYHLGDVGKEPMILIFGRNPREVLDKLRLEGHHHHHH | soluble |
| MGSDKIHHHHHHMAELQEVQITEEKPLLPGQTPETAKEAELAARILLDQGQTHSVETPYGSVTFTVYGTPKPKRPAIFTYHDVGLNYKSCFQPLFRFGDMQEIIQNFVRVHVDAPGMEEGAPVFPLGYQYPSLDQLADMIPCILQYLNFSTIIGVGVGAGAYILSRYALNHPDTVEGLVLINIDPNAKGWMDWAAHKLTGLTSSIPDMILGHLFSQEELSGNSELIQKYRGIIQHAPNLENIELYWNSYNNRRDLNFERGGETTLKCPVMLVVGDQAPHEDAVVECNSKLDPTQTSFLKMADSGGQPQLTQPGKLTEAFKYFLQG | not soluble |
| MCTTCGCAEGNLYIEGDEHNPHSAFRSAPFAPAARPALNITGIKTPDFAPSQTAEGDLHYGHGEAGTHAPGMSQRRMLEVEIDVLDKNNRLAERNRARFAARQQLVLNLVSSPGSGKTTLLTETLMKLKDRVPCAVIEGDQQTVNDAARIRATGTPAIQVNTGKGCHLDAQMIADAAPRLPLDDHGILFIENVGNLVCPASFDLGEKHKVAVLSVTEGEDKPLKYPHMFAAASLMLLNKVDLLPYLNFDVEKCIASAREVNPEIEIILISATSGEGMDQWLAWLEAQRCA | not soluble |
| MAHHHHHHMRNSLRLRLSSTSSSLLRSTFWLRQCGSGGCGFSGGPGGYPTDADALAKILTQAKKGSFNGSSSSPSDFFDGRFVGGSPTMDPAMLQDMHQKLNQSLTPEVRESMKAMMESIQRGDGMPQMGMMAFGVGENEKGKKVARGAKLMFDPSTGKLSKDFVEKQLEDDDPVLPKETVGDYNTEGAIEVEFEEDARKEASVRENIPEAEVIVEEVPREK | not soluble |
| METPETRFCKESKVVKTSRVFPLDTNNHNTLFGGKLMSYIDDIASISAARHCRRETVTASMDSVDFLKPIGQKDSVCLESYVTWVGTSSMEVFVKVIKEHLMTGERELAATSFLTFVALDSNGKPVPVPRVVPETEEEIMLHNTAVQRANERKNRKRHSQALANALGTDKPWVNVKPKTLEHHHHHH | not soluble |
| TEQERLELEAAAFRRLVAHLDSRKDVQNIDLMNLSGFCRNCLSKWYKAAADEKHIDITLDDAREVVYGMPYSEWKANYQKEASAEQQAAFVKESKH | not soluble |
| MAKRKLTQNQTRRIQSNNAKTLHRHKKKEIEWSDEMLGESQEGVVVTRYSIHADVENEQGEIYRCNLRRTLSSLVVGDKVVWRKGNEQLQGVSGVIEAIHPRENEISRPDYYDGLKPIAANIDRIIIVSAVLPTLSLNIIDRYLVVCEIAGITPLIVLNKVDLLAQEQRQEIEDQLKIYQDIGYEILMISAKSGENMEKLTALLAQGTAIFVGQSGVGKSSLINHILPSVNAQVGDVSETSGLGQHTTTSSRLYHLPQGGNLIDSPGIREFGLWHLDAEQITKGYREFQYVLGTCKFRDCKHLSDPGCALREAVEQGKISPVRYDNYHRLIESLSETKSQRHFSLV | not soluble |
| MNLYLITFQSSLNRIESVYDCHKDLFVEIEKFFTLHLVPYTEAASIPADAYRMAFIASGGVEKMVTQHFELLPYPIHLLTDGQQNSLAASLEIATWIRSKGMKVHIIHGTIPNMVKQLIDHHKAFAAQREVRGKRIGVVGYSSPWLVASNVDYLLAKRRWGIEFIDIPMEEVYCLFYQIKDDDIGYEASVFANRAIACREGTPEDLLKAMRLYQAVKIICEKKKLDAVTLSCFSLIEKLGTTGCLALALLNDEGIPAGCEGDLQSIFTLLIAKTLTGQAGFMANPAFINDDQNEIVMAHCTIATKMVDQFIIRNHFETETGIAIQGILHPGGITMIKCAGECLDEYFVSTGQLIENTNYINACRTQARIKLDKPVDYFMRNPLGNHHIILMGDHEKVIHEFMQLNSCKLVE | not soluble |
| MGSDKIHHHHHHMKILFGPVSSRRFGRSLGIDLSPSKKQCNFDCVYCELDPKKAQEKQDEIISIDKIISEVKAMLEKNVEFDFLTLTANGEPSLYPYLNELILSLRSIAKDKKLLILSNGTAVLDEDKFNALLKLDVVKFSLDSAVAKTFYRIDRALKNIDLEKMIEKMADFRARFNGDLIMEILVVKDLNDNEEEFEALNQALKKIMPLRVDLSTIDRPPAYAVKKVSEEKLLELSKLIDSTPVLLAKRHYEGEKLSFNEEELLKMLHLRSQSEIDIEVKFDEQSKTLLNQLIKEKKVKILDLAGVKFYKV | not soluble |
| MLTSFGKTLRKLRIDHSERLLDMADKPGVSVAFLSSVEIGKKSVPVGMEEKIIEFYSLDKAMASLLKKEADACVERTSQSNLLIHLVVKLLACFLEI | not soluble |
| MCMNTQSPPSPHDPHGAAALPFRLWTAEERRASLDTALREWRDGEDVWVYGYGSLIWRPDFDFVERRLATLHGHHRALLWSRVNRGTPECPGLVFGLDRGGSCRGVVYRLAGRQVPDYFPALWDREMSTGAYLPRWLRCATEHGPVNALVFIMNRANPAYIRALPEPELLAIVRRASGRYGPCTEYVVQTAQALRQAGIRDARLEQIARQLEAEVHPLGVLEHHHHHH | soluble |
| MGSDKIHHHHHHMDDDSNQKPLFHMALGVLTSLTPPQHHIELVDEHFHDKINYDGDYDMVGITSRTIEATRAYEIADEFRKRGKTVVLGGLHISFNPEEAAAHADCIVVGEADNLWTTLLDDVANNRLKERYDSKDFPPVKAITPLDYARIAKASKRTKVDGTKSIPIYVTRGCPFNCSFCVTPNFTGKQYRVQDPKLLKHQIEEAKKYFFKANGKNSKPWFMLTDENLGINKKKLWESLDLLKECDITFSVFLSINFLEDPTTVKKLVDAGCNFVLAGLESIKQSTLEAYNKGHVNSAEKYSKIIEDCRKAGLNIQGNFLFNPAIDTFEDIDELVQFVKKNHIFMPIFQIITPYPGTQMYHEYRESGLITIEDWEKYNALHLVIKSDRYEPLLFQYKVLKSYVEVYTWKEILLRTLYNPRKLINLVTSIAFKKHLAAQLKAFERNHKMNPAMLSGVKPVMNG | not soluble |
| ENENRVEALEVRLAFQDELLDALNATVARQQKEIDLLQQQIRLLYQQFRNAQPDDAPGGSLRDDIPPHY | soluble |
| MHHHHHHGSKFKGSTFGRLVRIEFDILRLGELKIDDLSEFDTSEIKLEIKATSSGIKLVGVWEGDIEKVGEAIKKALEESIKLRERILRKMKSKVERIRKALLEMGFREEQFGYGEAVKFVKKVGDFEIAIIVSSREDIVRVEVYGEGNRKIIAPELEAFFESVDIEEIEVYDIEEEGREEKVVINLELPKSDEKPEKRITEAVKILENILMA | soluble |
| MTENELLTRCGGKCELCGSDVELAIYDLPASDGHENEIMICENCSSQIAAPDTMDMNHWRCLNDSMWSQVPAVQVMSYRMLKRLSGESWAQDLLDMLYLEDDLRAWGDAEAAAASDDTPPTLDSNGAVLNAGDTVVIIKDLNVKGTSFVAKRGTAVRNIALTNNPEHIEGRVNGTRIVILTCFVKKSLEHHHHHH | soluble |
| MDTLAFINRALVEEGYSLKDIKLVLITDFEPSSVEAIRRLLAVNQGVSFIGRKYVKEVLEKFGLRNVRFRAVEEIPSLEFKLPESGTVKVLPFRNSPQEASAGYLLEEERILFSGKFLGSFGEKGDTIQIFHRVFFPCRNILDYNVGLLESIGEEFEVFPFYGEKQKLSAKTLKEYFNYTVKGSVLEREVILGLVNGVLLNLSDEERENLLSSIGYLAEVDDKVIVDFYTEPNLFYEEFVNTLPDAVKSKEEFYRIVEKLLEHNFYVPLRAV | not soluble |
| ASLSPQPDVSGELNTEALTCIVERLESEIIDGSWIHISYEETDLEMMPFLVAQANKKYPELNLKFVMSVHELVSSIKETRMEGVESARFLVNMGSSGIHISVVDFRVMDGKTSVILFEPAACSAFGPALLALRTKAALEREQLPDCYFAMVELDIQRSSSECGIFSLALAKKLQLEFMNLVKIHEDNICERLCGEEPFLPSDKADRYLPVSFYKHTQGAQRLNEYVE | not soluble |
